The chains are these.
B1: LINE1-full (parent)
chain: UACGUAGGUGGUUUUCCCCUGAUAGUGCUAAGGGGGCCUGGAAGUUUGGACUGGGCAGAGCUCAACACAGCGUGGCAAAGUGGCUGUGGCUAGACUGCCUCUCUGGAUUCCUCGUCACUCAGCAGGGCAUCUCUGAGAGAAAUGCC

The variants in this data set derive from B1. As to the kind of experiment: self-cleavage, relative activity (ratio to wild type); higher = more cleavage; in vitro, sequencing; the parent is a self-cleaving ribozyme.
As to A50U U115C, the self-cleavage was determined as 1.17.

As to C51A U100C, the self-cleavage worked out at 1.93. The value for U52C A121C was 1.92; that for U52C A121G was 1.41. The value for A50G G93U was 0.05; that for G49U U96C was 0.11; that for G49U U96A was 0.02. The value for A50G A94G was 0.32. On to A50G A94U, for which the self-cleavage is 0.27. Take A50U A78G: the self-cleavage stood at 0.83.

In the case of A50U U104C, the self-cleavage was 1.03. The value for A50U A121G was 1.09; that for A50G U108C was 1.2; that for A50U A57G was 0.08. The value for U47G C113A was 1.6; that for G49A U87C was 0.21; that for C51U U62C was 0.05. The value for U52A A92U was 0.86. Regarding G48A C63U, the self-cleavage was 0.36. Consider U52A U115C, for which the self-cleavage came out at 1.42. As for U52A U115A, the self-cleavage was found to be 1.34. The value for U52A C113U was 1.41. In the case of A50G U134A, the self-cleavage was 0.68. Regarding A50C U112C, the self-cleavage worked out at 1.36.

With G49U U91C, the self-cleavage amounted to 0.46.

Consider A50U A140G, for which the self-cleavage was determined as 1.05. The value for G49C A138G was 1.59; that for A50U A129U was 1.12; that for A50U A129G was 0.83. Regarding U47G U134C, the self-cleavage was found to be 0. With C51G C71U, the self-cleavage was 1.5.

For A50U U73C, the self-cleavage is 2.09. With U52A G55A, the self-cleavage was 0.3.

For the variant C51A A141G, the self-cleavage is 1.75. The value for G49C A59G was 0.12.

On to U52A A141G, for which the self-cleavage stood at 1.11. The value for A50G U104C was 1.08. The value for G49U U119C was 1.2.

As for G49A U73C, the self-cleavage stood at 2.51.

With A50G U52C, the self-cleavage was 1.08. Regarding A50G U52G, the self-cleavage came out at 0.18. The value for A50U U143C was 1.16; that for A50U U62C was 0.04; that for A50G A138G was 1.2.

Take A50G A138C: the self-cleavage was determined as 1.12. The value for U52A A69U was 0.08.

On to A50G G105C, for which the self-cleavage stood at 1.11.

As to A50G G105A, the self-cleavage is 0.43.

On to G48A G125A, for which the self-cleavage worked out at 1.38. The value for U52A U96C was 0.15; that for U52A U96A was 0.07.

As to U52A U100C, the self-cleavage came to 1.96.

Regarding G48A U132A, the self-cleavage came to 1.38.

Turning to G48A U132C, the self-cleavage came out at 1.29. The value for G48A A129G was 1.54; that for G48A G144U was 1.46; that for C51U U130C was 1.4.

Take G49U A65C: the self-cleavage is 0.04.

Regarding U47G A77U, the self-cleavage turned out to be 0.94. The value for G48A A117G was 1.47; that for G48A U143A was 1.64; that for C51U C90A was 0.01. In the case of U52A A129U, the self-cleavage was 1.73. G48U U85A: the self-cleavage came to 0.1. The value for A50G A92U was 0.37; that for G49U C76U was 2.46. The value for C51U U73A was 1.48. The value for A50U A124G was 0.71; that for G49U A124U was 1.59; that for G48A U102C was 1.94.

For G48A A69G, the self-cleavage worked out at 0.3. Take G48A A69C: the self-cleavage came out at 0.02.

As to C51U A121G, the self-cleavage turned out to be 1.85. The value for A50U G86A was 0.06. Consider U52C A107G, for which the self-cleavage came out at 1. U52A U143A: the self-cleavage was 1.37.

Turning to A50G A67U, the self-cleavage was found to be 0.1. The value for A50G A67C was 0; that for A50U U132C was 1.05; that for C51A U62A was 0.02. Consider G48A A141G, for which the self-cleavage was 1.42. Consider A50C C103U, for which the self-cleavage is 1.37. A50G A65U: the self-cleavage is 0.24. The value for A50G A65C was 0.1. The value for A50G A65G was 0.14; that for U52A A121U was 1.03; that for U47G C146U was 1.69.

U47G C146A: the self-cleavage worked out at 1.22. As to A50C C116U, the self-cleavage was 1.34. On to A50C C120U, for which the self-cleavage was 1.66. The value for G49A A77U was 0.86. The value for U52A A77U was 1.03; that for A50U U91A was 0.34; that for A50G C66A was 0.06.

As for A50G C66U, the self-cleavage came out at 0.08. As to U52A U62C, the self-cleavage amounted to 0.04. As for U52A U62A, the self-cleavage is 0.05. The value for G48A G122A was 1.27; that for A50U A141U was 0.68; that for U47G A107G was 1.24. Consider U47G A129U, for which the self-cleavage was 0.53. Consider A50C A77U, for which the self-cleavage is 0.35. The value for G48A U130A was 0.91. The value for A50G G106A was 1.41. On to U52A G75U, for which the self-cleavage is 0.45. Regarding C51A A138G, the self-cleavage is 1.44. As to G49U U132A, the self-cleavage was 1.31. The value for G49U U132C was 1.06. Turning to U52A C145U, the self-cleavage was 1.6. The value for A50G U87C was 0.14; that for A50G U87G was 0.11. The value for A50G U87A was 0.03; that for U52C A67U was 0.16; that for A50G G126U was 0.76. The value for A50G G126A was 0.41.

For the variant U47G A136U, the self-cleavage turned out to be 1.53. The value for C51U A94G was 0.22; that for U52A C98U was 0.12; that for A50U U109A was 0.78. As to G48A A77G, the self-cleavage is 1.73. The value for A50U G70C was 0; that for U47G A140G was 0.71; that for U47G A140U was 0.9. The value for U47G U73C was 2.66. The value for A50G G122A was 0.83; that for G49U C71U was 0.71; that for C51U U81C was 1.57. In the case of U52A G88A, the self-cleavage turned out to be 0.12.

On to A50G U73C, for which the self-cleavage amounted to 1.31. The value for A50G U73A was 0.78; that for A50G U73G was 0.34. The value for U47G U91C was 0.1; that for A50C U115C was 1.84; that for C51A U115C was 1.5. As to A50G G144C, the self-cleavage is 0.83. The value for A50G G144A was 1.46; that for A50G G144U was 0.25; that for A50U C110A was 1.53.

U52A C146A: the self-cleavage turned out to be 1.16. Consider C51U A69G, for which the self-cleavage was found to be 0.66.

Regarding C51U A69U, the self-cleavage was found to be 0.04. The value for G48U A129G was 1.23; that for U52C A92G was 0.1; that for C51U U134C was 1.74. Take G49U A140U: the self-cleavage is 0.8. On to A50C U104A, for which the self-cleavage came to 0.87.

Take A50U C90U: the self-cleavage turned out to be 0.05. Take U52A A136G: the self-cleavage stood at 1.4. As for G49A A117G, the self-cleavage amounted to 1.24. Consider C51U U85A, for which the self-cleavage is 0.09. The value for U52A U85C was 0.2; that for G48U G88C was 0.04; that for U52A U119C was 1.48.

U52A U119A: the self-cleavage was found to be 1.47. For U52A G106C, the self-cleavage stood at 1.84. As to U52A G82U, the self-cleavage is 1.26. Regarding U52A G82A, the self-cleavage was determined as 1.63. For the variant U47G U81C, the self-cleavage turned out to be 0. With U47G U81A, the self-cleavage is 1.81.

In the case of G48A A94U, the self-cleavage came to 0.18. The value for G48A A94G was 0.13; that for U52A A64G was 0.31. Turning to A50G G58C, the self-cleavage was determined as 0.11. The value for A50G U81A was 1.3; that for A50G U81C was 0.7. With G49A U91G, the self-cleavage is 0.04. The value for C51U U132C was 0.69.

The values above are taken from the RNAGym collection of RNA variant scans (doi:10.7554/elife.90254).
